Experimental data reported in patent US8632988.

What was measured:
[1] = molecular target: human hemoglobin (human) (UniProt P69905); assay: cell-based or functional assay
[2] = molecular target: mouse hemoglobin (mouse) (UniProt P01942); assay: cell-based or functional assay
UniProt P01942, sequence (P01942 2-142, chain 1 of 2): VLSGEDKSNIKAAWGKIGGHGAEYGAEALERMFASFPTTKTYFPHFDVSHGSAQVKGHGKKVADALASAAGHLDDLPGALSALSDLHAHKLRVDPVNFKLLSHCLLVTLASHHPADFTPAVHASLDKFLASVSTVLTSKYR
UniProt P01942, sequence (P02088 2-147, chain 2 of 2, further chain): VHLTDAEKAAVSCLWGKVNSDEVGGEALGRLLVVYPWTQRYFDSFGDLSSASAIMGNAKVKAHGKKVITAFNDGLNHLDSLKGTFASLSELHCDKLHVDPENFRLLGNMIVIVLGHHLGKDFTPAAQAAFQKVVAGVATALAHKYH

UniProt P69905, sequence (P69905 2-142, chain 1 of 2): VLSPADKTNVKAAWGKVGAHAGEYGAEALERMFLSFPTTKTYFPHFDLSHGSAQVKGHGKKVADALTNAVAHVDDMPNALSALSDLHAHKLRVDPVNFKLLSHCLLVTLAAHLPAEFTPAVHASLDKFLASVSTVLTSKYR
UniProt P69905, sequence (P68871 2-147, chain 2 of 2, further chain): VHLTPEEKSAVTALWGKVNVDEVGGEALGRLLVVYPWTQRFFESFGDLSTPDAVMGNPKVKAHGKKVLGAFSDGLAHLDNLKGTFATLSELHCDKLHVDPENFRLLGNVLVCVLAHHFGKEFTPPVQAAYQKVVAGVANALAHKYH

Substance: IsdB on the cell wall of iron-starved S. aureus strain Newman (from UniProt A6QG30 41-613) (receptor)
- time at which growth appears around hemoglobin disks on iron-deficient solid medium [1]: 24 h
- time at which growth appears around hemoglobin disks on iron-deficient solid medium [2]: 72 h
